Laboratory results from patent US20200317768A1 (published 2020).
Changes are numbered by the printed parent chain. In names and notes the source's numbering stands.

T1: cynomolgus monkey FcγRIIa3 extracellular domain, C-terminal His-tag (cynomolgus monkey)
T1 construct: also called cyno FcγRIIa3; FcgRIIa3; not shown: His-tag added to the C-terminus
T1 chain: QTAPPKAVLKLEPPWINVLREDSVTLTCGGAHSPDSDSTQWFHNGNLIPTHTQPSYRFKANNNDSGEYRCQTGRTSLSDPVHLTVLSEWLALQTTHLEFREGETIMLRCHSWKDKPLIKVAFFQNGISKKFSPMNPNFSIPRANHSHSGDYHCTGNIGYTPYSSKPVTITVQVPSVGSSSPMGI

T2: cynomolgus monkey FcγRIIa2 extracellular domain, C-terminal His-tag (cynomolgus monkey)
T2 construct: also called cyno FcγRIIa2; FcgRIIa2; not shown: His-tag added to the C-terminus
T2 chain: T1 chain with I127K, K130N, P133H, R142Q

T3: cynomolgus monkey FcγRIIb extracellular domain, C-terminal His-tag (cynomolgus monkey)
T3 construct: also called cyno FcγRIIb; cynoFcγRIIb; not shown: His-tag added to the C-terminus
T3 chain: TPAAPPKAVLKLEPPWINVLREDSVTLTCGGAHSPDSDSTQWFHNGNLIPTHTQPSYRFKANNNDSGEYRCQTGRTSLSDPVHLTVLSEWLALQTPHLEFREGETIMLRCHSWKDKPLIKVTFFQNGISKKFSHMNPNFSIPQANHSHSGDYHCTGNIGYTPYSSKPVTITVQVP

T4: human FcγRIIaH extracellular domain, C-terminal His-tag (human, UniProt P12318 34-217)
T4 construct: also called human FcγRIIa (type H); FcgRIIaH; not shown: His-tag added to the C-terminus
T4 sequence: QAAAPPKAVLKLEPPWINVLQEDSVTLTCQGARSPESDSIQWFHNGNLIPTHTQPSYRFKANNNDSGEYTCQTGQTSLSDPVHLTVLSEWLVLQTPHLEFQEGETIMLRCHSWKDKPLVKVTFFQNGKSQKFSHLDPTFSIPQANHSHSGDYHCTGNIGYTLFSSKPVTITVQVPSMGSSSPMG

T5: human FcγRIIaR extracellular domain, C-terminal His-tag (human, UniProt P12318 34-217)
T5 construct: also called human FcγRIIa (type R); FcgRIIaR; not shown: His-tag added to the C-terminus
T5 chain: T4 sequence with H134R

T6: cynomolgus monkey FcγRIIa1 extracellular domain, C-terminal His-tag (cynomolgus monkey)
T6 construct: also called cyno FcγRIIa1; FcgRIIa1; not shown: His-tag added to the C-terminus
T6 chain: T1 chain with T95P, A121T, S128A, P133H, N135D

B1: MS1032LO06-SG1 (M103205H795-SG1/M103202L889-SK1) (antibody, human IgG1, kappa)
heavy: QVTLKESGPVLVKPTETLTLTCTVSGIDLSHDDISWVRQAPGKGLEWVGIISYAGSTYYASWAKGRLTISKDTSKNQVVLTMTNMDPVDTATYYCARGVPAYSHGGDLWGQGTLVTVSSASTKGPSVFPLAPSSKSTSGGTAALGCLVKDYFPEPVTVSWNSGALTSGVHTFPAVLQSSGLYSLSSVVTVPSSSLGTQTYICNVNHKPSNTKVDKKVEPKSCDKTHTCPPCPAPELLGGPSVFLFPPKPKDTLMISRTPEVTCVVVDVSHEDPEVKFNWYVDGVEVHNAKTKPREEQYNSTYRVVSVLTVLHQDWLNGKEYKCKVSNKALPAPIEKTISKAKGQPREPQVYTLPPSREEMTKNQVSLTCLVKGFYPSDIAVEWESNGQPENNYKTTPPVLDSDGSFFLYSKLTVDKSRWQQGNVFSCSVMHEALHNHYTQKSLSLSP
light: DIVMTQSPATLSLSPGERATLSCTSSQSVYHANWLSWFQQKPGQPPKLLIYWASTLAYGVPSRFSGSGSGTDFTLTISSLQPEDAATYYCAGGYGGGRYAFGQGTKVEIKRTVAAPSVFIFPPSDEQLKSGTASVVCLLNNFYPREAKVQWKVDNALQSGNSQESVTEQDSKDSTYSLSSTLTLSKADYEKHKVYACEVTHQGLSSPVTKSFNRGEC
notes: Anti-latent myostatin antibody
B2: MS1032LO06-PK56 (M103205H795-PK56/M103202L889-SK1) (antibody, human IgG1, kappa)
heavy: QVTLKESGPVLVKPTETLTLTCTVSGIDLSHDDISWVRQAPGKGLEWVGIISYAGSTYYASWAKGRLTISKDTSKNQVVLTMTNMDPVDTATYYCARGVPAYSHGGDLWGQGTLVTVSSASTKGPSVFPLAPSSKSTSGGTAALGCLVKDYFPEPVTVSWNSGALTSGVHTFPAVLQSSGLYSLSSVVTVPSSSLGTQTYICNVNHKPSNTKVDKKVEPKSCDKTHTCPPCPAPELLNGPSVFLFPPKPKDTLMISRTPEVTCVVVDVSDEDPEVKFNWYVDGVEVHNAKTKPREEQYNSTYRVVSVLTVLHRDWLNGKEYKCKVSNKALPKPIEKTISKAKGQRREPQVYTLPPSREEMTKNQVSLTCLVKGFYPSDIAVEWESNGQPENNYKTTPPVLDSDGSFFLYSKLTVRKSRWQQGNVFSCSVMHEALHNHYTQKSLSLSP
light: B1 light
notes: CH PK56 = SG1 with G236N/H268D/Q311R/A330K/P343R/D413R (EU numbering); also called MS103205H795-PK56
B3: MS1032LO06-MY351 (M103205H795-MY351/M103202L889-SK1) (antibody, human IgG1, kappa)
heavy: B2 heavy with R345P, R415K
light: B1 light
notes: CH MY351 = SG1 with G236N/H268D/Q311R/A330K/D413K (EU numbering); also called MS103205H795-MY351
B4: MS1032LO06-PK57 (M103205H795-PK57/M103202L889-SK1) (antibody, human IgG1, kappa)
heavy: B2 heavy with R345P, N386R
light: B1 light
notes: CH PK57 = SG1 with G236N/H268D/Q311R/A330K/N384R/D413R (EU numbering); also called MS103205H795-PK57
B5: MS1032LO06-PK55 (M103205H795-PK55/M103202L889-SK1) (antibody, human IgG1, kappa)
heavy: B2 heavy with R415D
light: B1 light
notes: CH PK55 = SG1 with G236N/H268D/Q311R/A330K/P343R (EU numbering); also called MS103205H795-PK55
B6: MS1032LO06-MY352 (M103205H795-MY352/M103202L889-SK1) (antibody, human IgG1, kappa, name in EU numbering)
heavy: B2 heavy with R345P
light: B1 light
notes: Printed substitutions: G236N/H268D/Q311R/A330K/D413R (EU numbering); also called MS103205H795-MY352
B7: MS1032LO06-MY201 (M103205H795-MY201/M103202L889-SK1) (antibody, human IgG1, kappa)
heavy: B2 heavy with R313Q, R345P, R415D
light: B1 light
notes: CH MY201 = SG1 with G236N/H268D/A330K (EU numbering); also called MS103205H795-MY201

What was measured:
[1] = biological target: T7, cynomolgus monkey FcγRIIIaS extracellular domain, C-terminal His-tag (cynomolgus monkey, UniProt A3RFZ7 21-206 (rhesus entry)); test: SPR; KD of SG1 divided by KD of variant;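 further: relative to parent M103205H795-SG1 carrying the SG1 human heavy chain constant region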
T7 construct: also called cyno FcγRIIIaS; FcgRIIIaS; not shown: His-tag added to the C-terminus
Method: (§1) The kinetic analysis of interactions between these antibodies and FcγR was carried out using BIACORE® T200 or BIACORE® 4000 (GE Healthcare). HBS-EP+ (GE Healthcare) was used as the running buffer, and the measurement temperature was set to 25° C. A chip produced by immobilizing Protein A. Protein A/G or mouse anti-human IgG kappa light chain (BD Biosciences) onto a Series S Sensor Chip CM4 or CM5 (GE Healthcare) by the amine-coupling method was used. […] After the measurement, the antibody captured on the chip was washed off by allowing reaction with 10 mM glycine-HCl, pH1.5 and 25 mM NaOH so that the chip was regenerated and used repeatedly. The sensorgrams obtained as measurement results were analyzed by the 1:1 Langmuir binding model using the BIACORE® Evaluation Software to calculate the binding rate constant ka (L/mol/s) and dissociation rate constant kd (l/s), and the dissociation constant KD (mol/L) was calculated from these values. […] Regarding such interactions, KD values were calculated using the following 1:1 binding model described in BIACORE® T100 Software Handbook BR1006-48 Edition AE.

[2] = biological target: T1, cynomolgus monkey FcγRIIa3 …; test: SPR; KD of SG1 divided by KD of variant;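 further: relative to parent M103205H795-SG1 carrying the SG1 human heavy chain constant region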
Method: as §1

[3] = biological target: T2, cynomolgus monkey FcγRIIa2 …; test: SPR; KD of SG1 divided by KD of variant;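 further: relative to parent M103205H795-SG1 carrying the SG1 human heavy chain constant region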
Method: as §1

[4] = biological target: T3, cynomolgus monkey FcγRIIb extracellular …; test: SPR; KD of SG1 divided by KD of variant;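 further: relative to parent M103205H795-SG1 carrying the SG1 human heavy chain constant region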
Method: as §1

[5] = biological target: T4, human FcγRIIaH extracellular domain, …; test: SPR; KD of SG1 divided by KD of variant
Method: as §1

[6] = biological target: T5, human FcγRIIaR extracellular domain, …; test: SPR; KD of SG1 divided by KD of variant
Method: as §1

[7] = biological target: T6, cynomolgus monkey FcγRIIa1 …; test: SPR; KD of SG1 divided by KD of variant
Method: as §1

[8] = biological target: T8, human FcγRIIIaV extracellular domain, C-terminal His-tag (human, UniProt P08637 17-208); test: SPR; KD of SG1 divided by KD of variant
T8 construct: also called FcgRIIIaV; not shown: His-tag added to the C-terminus
Method: as §1

[9] = biological target: T3, cynomolgus monkey FcγRIIb extracellular …; test: SPR (BIACORE), antibody captured, soluble FcgR as analyte, 25C

T8 sequence (P08637 17-208 F176V): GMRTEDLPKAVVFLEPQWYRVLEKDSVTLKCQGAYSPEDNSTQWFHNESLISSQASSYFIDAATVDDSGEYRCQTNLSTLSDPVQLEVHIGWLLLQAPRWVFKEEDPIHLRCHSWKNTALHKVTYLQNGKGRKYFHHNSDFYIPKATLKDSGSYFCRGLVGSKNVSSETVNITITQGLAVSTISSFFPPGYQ
T7 sequence (A3RFZ7 21-206): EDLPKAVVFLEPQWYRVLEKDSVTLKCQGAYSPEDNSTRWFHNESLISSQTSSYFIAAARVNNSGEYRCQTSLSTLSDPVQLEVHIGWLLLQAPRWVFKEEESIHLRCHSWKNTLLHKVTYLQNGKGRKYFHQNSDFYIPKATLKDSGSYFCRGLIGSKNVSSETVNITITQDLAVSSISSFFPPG

Row | Binder | KD fold (SG1 = 1) [1] [fold] | KD fold (SG1 = 1) [2] [fold] | KD fold (SG1 = 1) [3] [fold] | KD fold (SG1 = 1) [4] [fold] | KD fold (SG1 = 1) [5] [fold] | KD fold (SG1 = 1) [6] [fold] | KD fold (SG1 = 1) [7] [fold] | KD fold (SG1 = 1) [8] [fold] | Kd [9] [nM]
1 | B1 | 1 | 1 | 1 | 1 | 1 | 1 | 1 | 1 | 1900
2 | B2 | 0.06 | 3.5 | 3.1 | 3.9 | 0.8 | 0.5 | 2.6 | 0.06 | 500
3 | B3 | 0.07 | 4 | 3.6 | 5 | 0.7 | 0.6 | 3 | 0.08 | 380
4 | B4 | 0.06 | 2.7 | 2.8 | 3.8 | 0.7 | 0.5 | 2.5 | 0.03 | 520
5 | B5 | 0.08 | 4.3 | 4.1 | 5.4 | 1.1 | 0.7 | 3.3 | 0.05 | 360
6 | B6 | 0.07 | 3.9 | 3.5 | 4.7 | 0.7 | 0.6 | 2.7 | 0.06 | 420
7 | B7 | 0.08 | 4.9 | 4 | 5.8 | 0.9 | 0.8 | 3.2 | 0.02 | 330
